Experimental findings from article PMC10998830 are described below.

“And” between values parts separate entries of the source, which are not always exact repeats. Equal values may be shown once.

For orientation: Km means the concentration of substrate that gives half-maximal velocity. As a reminder, the kcat is the number of substrate molecules converted per active site and unit of time at saturation.

Substrate in series [1]: Nc1ncnc2c1ncn2[C@@H]1O[C@H](COP(=O)(O)OP(=O)(O)O)[C@@H](O)[C@H]1O
In words: purified protein, by the assay type. To be noted: 25.0 °C. As for the experimental part: (§1) Kinetics and thermal denaturation data were analysed by the nonlinear regression function of SigmaPlot 14.0 (SPSS Inc.). Thermal denaturation data were fitted to Eq. (1). Substrate saturation curves at a fixed concentration of the co-substrate were fitted to Eq. (2). Initial rate data at varying concentrations of HisZ were fitted to Eq. (3). The concentration of ATPPRT at any concentration of AbHisGS and AbHisZ was calculated according to Eq. (4). Histidine dose-response data were fitted to Eq. (5). Single-turnover data with WT-AbATPPRT isotopologues were fitted to Eq. (6). Plots of kcat ratios against relative viscosity were fitted to Eq. (7). Temperature-rate profile for AbHisGS was fitted to Eq. (8). Single-turnover data with R70A-AbATPPRT isotopologues were fitted to Eq. (9). In Eqs. […] While kcats for [^13C,^15N]AbHisGS and [^2H,^13C,^15N]AbHisGS are marginally lower than for unlabelled AbHisGS and [^15N]AbHisGS, the overlapping nature of most data points in Fig. 1c disagrees with distinguishable heavy-enzyme kinetic isotope effects on kcat (^HEkcat). […] This was further probed by pre-steady-state kinetics under multiple-turnover conditions. The AbHisGS reaction had been shown not to have a burst of product formation, which is reproduced here for unlabelled AbHisGS, whose traces overlap with those for [^2H,^13C,^15N]AbHisGS (Supplementary Fig. 5). S5 Supplementary Figure 4 Substrate saturation curves for unlabelled AbATPPRT with AbHisGS purified from cultures grown in M9 and M9 with high cell density compared with previously published data (reproduced here) for unlabelled AbATPPRT with AbHisGS purified from cultures grown in LB. For the M9 and M9 high cell density curves, all data points are shown for two independent measurements, except for the previously published LB curves, where data are the mean of two independent measurements. Lines are best fit of the data to equation (2): solid line for M9 high cell density curves, long-dashed line for M9 curves, and short-dashed line for previously published LB curves. […]

Substrate in series [2]: O=P(O)(O)OC[C@H]1O[C@H](OP(=O)(O)OP(=O)(O)O)[C@H](O)[C@@H]1O
As to the kind of experiment: purified protein, by the assay type. To be noted: 25.0 °C. As for the experimental part:
as §1

Substrate in series [3]: Nc1ncnc2c1ncn2[C@@H]1O[C@H](COP(=O)(O)OP(=O)(O)OP(=O)(O)O)[C@@H](O)[C@H]1O
As to the kind of experiment: purified protein, by the assay type. Conditions: 25.0 °C. As for the experimental part:
as §1

Substrate in series [4]: O=P(O)(O)OC[C@H]1O[C@H](OP(=O)(O)OP(=O)(O)O)[C@H](O)[C@@H]1O
In words: purified protein, by the assay type. Conditions: 25.0 °C. The procedure:
To assess the effect of increased AbHisGS mass in catalysis, we purified AbHisGS from heterologous expression in M9 medium supplemented with different isotopes to produce AbHisGS carrying natural isotope abundance (unlabelled AbHisGS), [^15N]AbHisGS, [^13C,^15N]AbHisGS, and [^2H,^13C,^15N]AbHisGS (the ^2H is incorporated in non-exchangeable positions) (Supplementary Fig. 1). […] AbATPPRT substrate saturation curves at 25 °C using unlabelled AbHisGS produced from heterologous expression in LB medium by our published protocol[30] and unlabelled AbHisGS generated here from expression in M9 medium and in M9 with high cell density induction[47] […] S5 Supplementary Figure 4 Substrate saturation curves for unlabelled AbATPPRT with AbHisGS purified from cultures grown in M9 and M9 with high cell density compared with previously published data (reproduced here) for unlabelled AbATPPRT with AbHisGS purified from cultures grown in LB. For the M9 and M9 high cell density curves, all data points are shown for two independent measurements, except for the previously published LB curves, where data are the mean of two independent measurements. […] Kinetics and thermal denaturation data were analysed by the nonlinear regression function of SigmaPlot 14.0 (SPSS Inc.). […] The concentration of ATPPRT at any concentration of AbHisGS and AbHisZ was calculated according to Eq. (4). […]
This is another data set of the same source.

Substrate in series [5]: Nc1ncnc2c1ncn2[C@@H]1O[C@H](COP(=O)(O)OP(=O)(O)OP(=O)(O)O)[C@@H](O)[C@H]1O
In words: purified protein, by the assay type. To be noted: 25.0 °C. As for the experimental part: as §1, with “5).” for “5). S5 Supplementary Figure 4 Substrate saturation curves for unlabelled AbATPPRT with AbHisGS purified from cultures grown in M9 and M9 with high cell density compared with previously published data (reproduced here) for unlabelled AbATPPRT with AbHisGS purified from cultures grown in LB. For the M9 and M9 high cell density curves, all data points are shown for two independent measurements, except for the previously published LB curves, where data are the mean of two independent measurements. Lines are best fit of the data to equation (2): solid line for M9 high cell density curves, long-dashed line for M9 curves, and short-dashed line for previously published LB curves.”
The source holds these as a separate data set.

Substrate in series [6]: O=P(O)(O)OC[C@H]1O[C@H](OP(=O)(O)OP(=O)(O)O)[C@H](O)[C@@H]1O
In words: purified protein, by the assay type. To be noted: 25.0 °C. The procedure: as §1, with “5).” for “5). S5 Supplementary Figure 4 Substrate saturation curves for unlabelled AbATPPRT with AbHisGS purified from cultures grown in M9 and M9 with high cell density compared with previously published data (reproduced here) for unlabelled AbATPPRT with AbHisGS purified from cultures grown in LB. For the M9 and M9 high cell density curves, all data points are shown for two independent measurements, except for the previously published LB curves, where data are the mean of two independent measurements. Lines are best fit of the data to equation (2): solid line for M9 high cell density curves, long-dashed line for M9 curves, and short-dashed line for previously published LB curves.”
The source holds these as a separate data set.

Substrate in the series “purified protein”: Nc1ncnc2c1ncn2[C@@H]1O[C@H](COP(=O)(O)OP(=O)(O)O)[C@@H](O)[C@H]1O
As to the kind of experiment: purified protein. Conditions: 25 °C, pH 8.5, 1.6 mM PRPP, 15 mM MgCl2, 100 mM KCl, unlabelled enzyme. It is filed as biochemical, Acinetobacter baumannii.

B1: AbATPPRT (Acinetobacter baumannii ACICU) (protein)
chain: MNDVRNDDPNFNVMGNFDHGLTLALSKGRILKETLPLLATAGINLLEDPEKSRKLIFPTTHKQVRILILRASDVPTYVENGAADLGVAGKDVLMEHGAQHVYELLDLQIAKCKLMTAGKVGMERPKGRLKIATKYVNLTRQYYASLGEQVDVIKLYGSMELAPLVGLGDYIVDVVDTGNTLRANGLEPLEEICKVSSRLIVNKASFKRKQVLLNPIISQLEQAVQSR
notes: hetero-octameric holoenzyme (two HisGS dimers flanking a HisZ tetramer) reconstituted in vitro from separately purified recombinant AbHisGS (E. coli BL21(DE3)) and AbHisZ; unlabelled (natural isotope abundance)
Regarding B1, the Km in series [1] was 300 µM and 280 µM; in series [2] it was 120 ± 10 µM; in series [3], 130 ± 20 µM; in series [4], 96 µM; in series [5], 170 ± 30 µM and 210 ± 30 µM; in series [6] it was 80 µM and 85 µM. Besides, in the series “purified protein”, the Km amounted to 350 ± 40 µM. Moreover, the kcat (in series [4]; in “purified protein”) was 16.6 ± 0.4 s⁻¹ throughout.
